Consider six molecules from US20230303695A1 (SHANGHAI XBH BIOTECHNOLOGY, published 2023).

The target in test [1] is T1, mouse IGSF8 expressed on CT26 cells (mouse, UniProt Q8R366 26-611).
T1 construct: whole, on cells
T1 sequence (looked up): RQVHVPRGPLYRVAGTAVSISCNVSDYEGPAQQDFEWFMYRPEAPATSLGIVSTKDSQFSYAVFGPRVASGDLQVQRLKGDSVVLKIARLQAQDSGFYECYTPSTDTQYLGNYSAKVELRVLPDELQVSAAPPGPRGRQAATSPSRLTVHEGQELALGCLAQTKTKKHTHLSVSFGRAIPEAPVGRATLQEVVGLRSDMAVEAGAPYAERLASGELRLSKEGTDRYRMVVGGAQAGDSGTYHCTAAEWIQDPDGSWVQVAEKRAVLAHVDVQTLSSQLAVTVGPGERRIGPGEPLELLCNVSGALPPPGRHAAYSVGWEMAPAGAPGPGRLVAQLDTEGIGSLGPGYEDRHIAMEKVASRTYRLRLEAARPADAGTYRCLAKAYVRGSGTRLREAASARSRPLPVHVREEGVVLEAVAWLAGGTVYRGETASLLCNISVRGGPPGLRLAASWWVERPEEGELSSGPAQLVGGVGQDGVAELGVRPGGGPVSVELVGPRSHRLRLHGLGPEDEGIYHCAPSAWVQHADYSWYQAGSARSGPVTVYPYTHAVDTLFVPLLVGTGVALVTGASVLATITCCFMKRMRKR
As to the kind of experiment: FACS on CT26 cells expressing mouse IGSF8, anti-human Fc-PE. Here is the method: (§1) To test cross reactivity of the L1, and L2 antibodies, CT26 cells with forced human, cynomolgus monkey, or mouse IGSF8 expression were generated by lentiviral delivery. For antibody binding assays based on cell-expressed antigens, 100,000 cells overexpressing the antigen were washed with PBS buffer containing 2% FBS, and then incubated with 100 μL of antibodies or IgG of different concentrations for 30 minutes on ice. Cells were then washed twice with wash buffer, and incubated with 100 μL of 1:100 anti-human Fc-PE antibody for 15 minutes on ice. Cells were washed twice with wash buffer and analyzed on a FACS analyzer (CytoFlex, Beckman). The MFI was plotted vs. antibody concentration. The EC50 cell binding potenct was calculated using nonlinear regression curve fit.

Test [2] deals with T2, recombinant human IGSF8 extracellular domain tagged by a human Fc region (IGSF8-hFc) (human, UniProt Q969P0 28-579, biotin label in Examples 17, 18 and 28 (site not given)).
T2 construct: also called IGSF8-Fc fusion protein; IGSF8-hFc-biotin; not shown: human Fc region
T2 sequence: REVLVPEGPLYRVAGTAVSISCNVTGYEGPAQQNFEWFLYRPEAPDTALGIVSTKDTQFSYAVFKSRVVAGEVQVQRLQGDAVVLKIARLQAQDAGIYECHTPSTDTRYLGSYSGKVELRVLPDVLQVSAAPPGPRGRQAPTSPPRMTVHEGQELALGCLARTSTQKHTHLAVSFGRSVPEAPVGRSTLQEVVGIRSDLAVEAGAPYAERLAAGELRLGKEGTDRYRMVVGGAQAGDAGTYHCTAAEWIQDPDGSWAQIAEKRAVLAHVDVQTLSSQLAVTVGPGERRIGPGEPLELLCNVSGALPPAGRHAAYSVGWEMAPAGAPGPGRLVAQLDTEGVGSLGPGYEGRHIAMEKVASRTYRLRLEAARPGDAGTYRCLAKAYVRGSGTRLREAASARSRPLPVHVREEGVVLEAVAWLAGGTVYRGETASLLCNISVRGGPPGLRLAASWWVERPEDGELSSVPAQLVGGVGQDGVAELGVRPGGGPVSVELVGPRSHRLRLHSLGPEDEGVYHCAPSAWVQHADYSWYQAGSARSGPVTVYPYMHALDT
Nature of the test: FACS blocking assay: antibody titrated against biotinylated IGSF8-hFc (1 ug/mL) binding to KIR3DL2 on CT26 cells, Streptavidin-PE. Here is the method: CT26 cells with forced ectopic/exogenous human KIR3DL2 expression were incubated with biotinylated IGSF8-hFc recombinant protein (1 μg/mL) in the presence of the antibodies L1-20, L2-10, and a isotype control antibody. The binding of IGSF8-hFc-biotin to the Ct26 cells was determined using Streptavidin-PE by flow cytometry analysis (FIG. 39).

Test [3] addresses T3, cynomolgus monkey IGSF8 expressed on CT26 cells (cynomolgus monkey, UniProt Q969P0 28-613 (human entry)).
T3 sequence: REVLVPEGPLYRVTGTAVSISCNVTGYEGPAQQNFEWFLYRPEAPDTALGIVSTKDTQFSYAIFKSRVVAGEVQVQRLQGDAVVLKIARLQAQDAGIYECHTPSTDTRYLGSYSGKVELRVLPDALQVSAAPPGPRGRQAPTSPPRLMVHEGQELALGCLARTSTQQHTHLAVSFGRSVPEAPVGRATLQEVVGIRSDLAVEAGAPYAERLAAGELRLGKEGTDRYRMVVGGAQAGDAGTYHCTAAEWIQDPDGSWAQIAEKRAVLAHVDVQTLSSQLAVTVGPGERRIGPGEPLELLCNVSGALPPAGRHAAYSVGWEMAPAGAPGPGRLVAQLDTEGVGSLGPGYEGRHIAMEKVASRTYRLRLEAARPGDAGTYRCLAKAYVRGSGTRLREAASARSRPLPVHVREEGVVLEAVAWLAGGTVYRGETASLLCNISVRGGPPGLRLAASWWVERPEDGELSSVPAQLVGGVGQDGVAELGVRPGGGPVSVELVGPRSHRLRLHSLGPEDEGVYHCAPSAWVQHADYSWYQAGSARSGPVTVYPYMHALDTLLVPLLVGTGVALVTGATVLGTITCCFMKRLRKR
Nature of the test: FACS on CT26 cells expressing IGSF8. Here is the method: as §1

The target in test [4] is T4, human IGSF8 expressed on the cell surface (human, UniProt Q969P0 28-613).
T4 construct: whole, on cells; also called human IGSF8 on CT26 cells; IGSF8 on MC38 cells
T4 sequence (looked up): T3 sequence with T14A, I63V, A125V, L147M, M148T, Q167K, A187S, L554F
Nature of the test: FACS on CT26 cells expressing IGSF8. Here is the method:
as §1

The target of test [5] is T2, recombinant human IGSF8 extracellular …. Nature of the test: SPR, Ab captured. As to the method: The binding affinities of the L1 and L2 antibodies to IGSF8 recombinant protein were determined by surface plasmon resonance (SPR). Briefly, anti-human Fab antibody was imobilized on acarboxyl-derivatized SPR chip surface, and the antibodies were captured on the resulting surface at 5 μg/ml for 30 seconds.
Background: Surface plasmon resonance follows binding to a sensor surface in real time, without labels.

Test [6] addresses T1, mouse IGSF8 expressed on CT26 cells. Nature of the test: FACS on CT26 cells expressing IGSF8. Here is the method:
as §1

Test [7] deals with T2, recombinant human IGSF8 extracellular …. Nature of the test: FACS, IGSF8-hFc on CT26 cells, MFI normalized to Thy1.1. As to the method: KLRC1 also contains a ITIM motif in its intracellular domain, and was known to be a inhibitory receptor of NK or CD8⁺ T cells as part of a heterodimer with KLRD1 on the cell surface. […] Specifically, 100,000 CT26 cells overexpressing the antigens (KIRs or KLRs) were washed with PBS buffer containing 2% FBS, and incubated with 100 μL IGSF8 recombinant proteins or antibodies (5 μg/mL) for 30 minutes on ice. Cells were then washed twice with wash buffer, and incubated with 100 μL of 1:100 anti-human Fc-PE antibody for 15 minutes on ice. Cells were washed twice with wash buffer and analyzed on a FACS analyzer (CytoFlex, Beckman). In these experiments, the mean fluorescence intensity (MFI) of IGSF8 binding to different CT26 cells were normalized by the expression of different KLRs on CT26 cells using an anti-thy1.1 mAb via flow cytometry.
On the technique in general: In flow cytometry, cells or beads pass a laser one at a time.

Changes are numbered by the printed parent chain.

B1: L2-10 (antibody, V domains shown)
VH: EVQLVESGGGLEQPGGSLRLSCAASGFTFRDYAMTWVRQAPGKGLEWVSSISGSGGSTYYADSVKGRFTISRDNSKNTLYLQMNSLRAEDTAIYYCARGEYSSGWPSWFDPWGQGTLVTVSS
VL: DIQMTQSPSSLSASVGDRVTITCRASRTVGTFLNWYQQKPGKAPKALILHTSILEGGVPSRFSGSGSGTDFTLTISSLQPEDIATYYCQQSHDVPRTFGQGTKVEIK
notes: also called L2-10-IgG1
With B1, in test [1], the binding result was “no binding (tested: 40 ug/ml)”. For the same molecule, the “IC50 (read off the curve)” value in test [2] was roughly 0.4 µg/mL. For the same molecule, a half-maximal effect in test [3] (EC50) was put at 0.041 µg/mL. In test [4], this molecule came in with an EC50 of 0.145 µg/mL. In test [5], the Kd was 0.256 nM, the koff was 3.68e-05 s⁻¹ and the kon turned out to be 144000 M⁻¹ s⁻¹.

B2: L2-01 (antibody, V domains shown)
VH: B1 VH with A24G, S57N
VL: EIVLTQSPSSLSASVGDRVTISCRASRTVGTFLNWYQQRPGKPPQALILGVSILEGGVSSRFSGAGSGTEFSLTISSLQPEDIGTYYCQQSHDVPRTFGQGTKVDLR
notes: Expressed in CHO cells; also called L2 antibody; L2-01-IgG1
On to B2, for which, in test [1], the binding result is recorded as “no binding (tested: 40 ug/ml)”. In addition, the concentration for a half-maximal effect (EC50) in test [3] was determined as 0.212 µg/mL; in test [4], 0.473 µg/mL.

B3: L1-20 (antibody, IgG1, V domains shown)
VH: QVQLVESGGGVVQPGRSLRLSCAASGFTFSTYGMHWVRQAPGKGLEWVAVIWDDGSYKYYGDSVKGRFTISRDNSKNTLYLQMNSLRAEDTAVYYCARDGSGWGYAFDIWGQGTLVTVSS
VL: DIQLTQSPSSLSASVGDRVTITCQASQDIEWWLNWYQQKPGKAPKLLIYGSPNLETGVPSRFSGSGSGTDFTFTISSLQPEDIATYYCQQYDSFPYTFGQGTKVEIK
notes: also called L1-20-IgG1
Take B3: the “IC50 (read off the curve)” value in test [2] is roughly 0.3 µg/mL. For the same molecule, the EC50 in test [3] was 0.0268 µg/mL; in test [6], 0.0275 µg/mL; in test [4], 0.0537 µg/mL. For the same molecule, the Kd in test [5] stood at 0.0214 nM. Also, the koff in test [5] is 7.02e-06 s⁻¹. Moreover, in test [5], the kon was 329000 M⁻¹ s⁻¹.

B4: L1-01 (antibody, V domains shown)
VH: B3 VH with L115M
VL: DIQLTQSPSSLSASVGDRVTITCQASQDISEYLNWYQHKPGKAPNPLVFDAANLETGVPPRFSATGSGTDFSLTITSLQPEDFATYYCQQYDSFPYTFGQGTRLDIK
notes: Expressed in CHO cells; also called L1 antibody; L1-01-IgG1
Regarding B4, the figures for the EC50 in test [3], in test [6] and in test [4] were 0.224 µg/mL, 0.538 µg/mL and 0.206 µg/mL, respectively.

B5: KLRC1 alone on CT26 cells (receptor)
chain: not shown
notes: whole, on cells; also called KLRC1 monomer
For B5, the binding result in test [7] is on record as “no binding”.

B6: KLRD1 alone on CT26 cells (receptor, UniProt Q13241 1-179, looked up)
chain: MAVFKTTLWRLISGTLGIICLSLMSTLGILLKNSFTKLSIEPAFTPGPNIELQKDSDCCSCQEKWVGYRCNCYFISSEQKTWNESRHLCASQKSSLLQLQNTDELDFMSSSQQFYWIGLSYSEEHTAWLWENGSALSQYLFPSFETFNTKNCIAYNPNGNALDESCEDKNRYICKQQLI
notes: whole, on cells; also called KLRD1 monomer
In the case of B6, the binding result in test [7] is listed as “no binding”.

What is called EC50 is the concentration needed to bring the measured effect to its halfway point. The Kd is the constant that tells how readily two partners part at equilibrium. By koff is commonly meant the rate constant with which the complex falls apart. The term kon denotes a measure of how fast the partners come together.
